Measured values published in patent US10941182 (Amgen, dated 2021).
Starred links: 1 amine or outer side, 2 acyl side, 3 side chain; linkers in the order of their positions; H or OH if unused. Non-standard residues stand in square brackets, D forms with d. Primed or numbered codes have the meaning given here. *: point of attachment. AC4Abu = α-carboxy-4-aminobutyric acid, O=C(C(CCN[*:1])C(=O)[*:3])[*:2]; dBip = N[C@H](Cc1ccc(-c2ccccc2)cc1)C(=O)O; Oic = O=C(O)[C@@H]1C[C@@H]2CCCC[C@@H]2N1; Phe(4-Cl) = N[C@@H](Cc1ccc(Cl)cc1)C(=O)O; dPhe(4-Cl) = N[C@H](Cc1ccc(Cl)cc1)C(=O)O; Phe(4-I) = N[C@@H](Cc1ccc(I)cc1)C(=O)O; γGlu = O=C(O)[C@H](CCC(=O)[*:2])N[*:1]; HOOC(CH2)8CO = O=C(O)CCCCCCCCC(=O)*; d(β3hF) = N[C@@H](CC(=O)O)Cc1ccccc1; NMeR = CN[C@@H](CCCNC(=N)N)C(=O)O; Tridecanoyl = CCCCCCCCCCCCC(=O)*; hArg = N=C(N)NCCCC[C@H](N)C(=O)O; Cha = N[C@@H](CC1CCCCC1)C(=O)O; NMeL = CN[C@@H](CC(C)C)C(=O)O; αMeP = C[C@@]1(C(=O)O)CCCN1; AC4Abu″ = not defined here; β3hP = O=C(O)C[C@@H]1CCCN1; Nle = CCCC[C@H](N)C(=O)O; Deg = CCC(N)(CC)C(=O)O; AEEA = NCCOCCOCC(=O)O; Aib = CC(C)(N)C(=O)O

Key:
Assay in all cases: cell-based or functional assay
rat APJ receptor [1] = biological target: T1, rat APJ receptor (rat, UniProt Q9JHG3 1-377)
T1 sequence (looked up): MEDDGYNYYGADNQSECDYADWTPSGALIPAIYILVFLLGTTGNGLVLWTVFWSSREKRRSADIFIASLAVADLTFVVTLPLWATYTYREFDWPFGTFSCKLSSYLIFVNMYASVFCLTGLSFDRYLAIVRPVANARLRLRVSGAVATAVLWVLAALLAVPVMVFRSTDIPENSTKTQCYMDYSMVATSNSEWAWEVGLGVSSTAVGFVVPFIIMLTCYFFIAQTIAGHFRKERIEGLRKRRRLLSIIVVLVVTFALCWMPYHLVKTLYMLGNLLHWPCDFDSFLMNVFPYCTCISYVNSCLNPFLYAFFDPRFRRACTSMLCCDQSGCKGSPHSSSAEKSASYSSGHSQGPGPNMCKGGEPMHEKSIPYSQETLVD

human APJ receptor = biological target: T2, human APJ receptor (human, UniProt P35414 1-380)
T2 sequence (looked up): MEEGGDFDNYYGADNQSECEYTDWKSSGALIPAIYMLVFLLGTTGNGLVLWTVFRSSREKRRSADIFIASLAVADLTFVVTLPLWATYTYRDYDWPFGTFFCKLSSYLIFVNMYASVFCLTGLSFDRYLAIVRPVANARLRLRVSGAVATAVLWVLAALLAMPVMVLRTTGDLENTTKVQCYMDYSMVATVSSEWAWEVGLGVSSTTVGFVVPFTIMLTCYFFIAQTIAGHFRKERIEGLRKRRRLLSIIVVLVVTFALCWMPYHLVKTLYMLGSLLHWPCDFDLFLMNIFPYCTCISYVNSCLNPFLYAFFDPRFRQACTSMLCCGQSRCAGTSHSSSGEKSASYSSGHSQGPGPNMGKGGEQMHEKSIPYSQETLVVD

rat APJ receptor [2] = biological target: T3, rat APJ receptor (rat, UniProt Q9JHG3 1-377); remark: listed apart in the source
T3 sequence (looked up): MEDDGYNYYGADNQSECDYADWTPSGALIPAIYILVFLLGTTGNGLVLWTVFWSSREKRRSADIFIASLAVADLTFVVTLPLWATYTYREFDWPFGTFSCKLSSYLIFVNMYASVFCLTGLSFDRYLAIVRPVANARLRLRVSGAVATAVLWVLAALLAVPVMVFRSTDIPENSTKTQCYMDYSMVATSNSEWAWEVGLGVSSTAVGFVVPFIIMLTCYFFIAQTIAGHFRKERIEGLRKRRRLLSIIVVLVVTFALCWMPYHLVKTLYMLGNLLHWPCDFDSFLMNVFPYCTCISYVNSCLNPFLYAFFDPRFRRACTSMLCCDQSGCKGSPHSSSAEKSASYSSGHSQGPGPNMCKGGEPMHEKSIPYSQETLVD

| Binder | EC50 Rat APJ Receptor (GTPγS assay) (rat APJ receptor [1]) [nM] | EC50 Human APJ Receptor (GTPγS assay) (human APJ receptor) [nM] | EC50 Rat APJ Receptor (rat APJ receptor [2]) [nM] |
| --- | --- | --- | --- |
| Tridecanoyl-[γGlu][AEEA][AEEA]QRP[NMeR][Cha]SHKG[Oic][Nle]P[d(β3hF)]-OH (SMILES CCCCCCCCCCCCC(=O)N[C@@H](CCC(=O)NCCOCCOCC(=O)NCCOCCOCC(=O)N[C@@H](CCC(N)=O)C(=O)N[C@@H](CCCNC(=N)N)C(=O)N1CCC[C@H]1C(=O)N(C)[C@@H](CCCNC(=N)N)C(=O)N[C@@H](CC1CCCCC1)C(=O)N[C@@H](CO)C(=O)N[C@@H](Cc1c[nH]cn1)C(=O)N[C@@H](CCCCN)C(=O)NCC(=O)N1[C@H](C(=O)N[C@@H](CCCC)C(=O)N2CCC[C@H]2C(=O)N[C@@H](CC(=O)O)Cc2ccccc2)C[C@@H]2CCCC[C@@H]21)C(=O)O) [Apelin polypeptide SEQ ID NO: 380] | 4.77 | 16.7 |  |
| Tridecanoyl-[AC4Abu][AEEA][AEEA]QRP[NMeR][Cha]SHKG[Oic][Nle][Deg][Phe(4-Cl)]-OH (SMILES CCCCCCCCCCCCC(=O)NCCC(C(=O)O)C(=O)NCCOCCOCC(=O)NCCOCCOCC(=O)N[C@@H](CCC(N)=O)C(=O)N[C@@H](CCCNC(=N)N)C(=O)N1CCC[C@H]1C(=O)N(C)[C@@H](CCCNC(=N)N)C(=O)N[C@@H](CC1CCCCC1)C(=O)N[C@@H](CO)C(=O)N[C@@H](Cc1c[nH]cn1)C(=O)N[C@@H](CCCCN)C(=O)NCC(=O)N1[C@H](C(=O)N[C@@H](CCCC)C(=O)NC(CC)(CC)C(=O)N[C@@H](Cc2ccc(Cl)cc2)C(=O)O)C[C@@H]2CCCC[C@@H]21) [Apelin polypeptide SEQ ID NO: 411] | 2.94 | 2.1 |  |
| XXXQRPRLSHKGPXPF ({Succinicacid}[AC4Abu][Aeea][Aeea]QRP[NMeArg]LSHKGP[Nle]P[4-Cl-F]{COOH}) [SEQ ID NO: 497] |  |  | 1.39 |
| XXXQRPRLSHKGPXPF ({TDA}[AC4Abu][Aeea][Aeea]Q[hArg]P[NMeArg][BLeu]SHKGP[Nle]P[4-Cl-F]{COOH}) [Apelin polypeptide SEQ ID NO: 383] |  | 0.535 |  |
| Tridecanoyl-[γGlu][AEEA][AEEA]QRP[NMeR][Cha]SHKG[Oic][Nle]P[Phe(4-Cl)]-OH (SMILES CCCCCCCCCCCCC(=O)N[C@@H](CCC(=O)NCCOCCOCC(=O)NCCOCCOCC(=O)N[C@@H](CCC(N)=O)C(=O)N[C@@H](CCCNC(=N)N)C(=O)N1CCC[C@H]1C(=O)N(C)[C@@H](CCCNC(=N)N)C(=O)N[C@@H](CC1CCCCC1)C(=O)N[C@@H](CO)C(=O)N[C@@H](Cc1c[nH]cn1)C(=O)N[C@@H](CCCCN)C(=O)NCC(=O)N1[C@H](C(=O)N[C@@H](CCCC)C(=O)N2CCC[C@H]2C(=O)N[C@@H](Cc2ccc(Cl)cc2)C(=O)O)C[C@@H]2CCCC[C@@H]21)C(=O)O) [Apelin polypeptide SEQ ID NO: 390] | 0.57 | 0.11 |  |
| Tridecanoyl-[γGlu][AEEA][AEEA]QRP[NMeR][Cha]SHKG[Oic][Nle]P[dPhe(4-Cl)]-OH (SMILES CCCCCCCCCCCCC(=O)N[C@@H](CCC(=O)NCCOCCOCC(=O)NCCOCCOCC(=O)N[C@@H](CCC(N)=O)C(=O)N[C@@H](CCCNC(=N)N)C(=O)N1CCC[C@H]1C(=O)N(C)[C@@H](CCCNC(=N)N)C(=O)N[C@@H](CC1CCCCC1)C(=O)N[C@@H](CO)C(=O)N[C@@H](Cc1c[nH]cn1)C(=O)N[C@@H](CCCCN)C(=O)NCC(=O)N1[C@H](C(=O)N[C@@H](CCCC)C(=O)N2CCC[C@H]2C(=O)N[C@H](Cc2ccc(Cl)cc2)C(=O)O)C[C@@H]2CCCC[C@@H]21)C(=O)O) [Apelin polypeptide SEQ ID NO: 381] | 5.42 | 6.12 |  |
| XXXQRPRLSHKGPXPF ({TDA}[AC4Abu][Aeea][Aeea][BhGln]RP[NMeArg]LSHKGP[Nle]P[4-Cl-F]{COOH}) [SEQ ID NO: 463] |  |  | 0.128 |
| Tridecanoyl-[AC4Abu″][AEEA][AEEA]QRP[NMeR]LSH[Nle]GP[Nle]P[Phe(4-Cl)]-OH (reading uncertain) [Apelin polypeptide SEQ ID NO: 466] |  | 0.0461 |  |
| Tridecanoyl-[AC4Abu][AEEA][AEEA]QRP[NMeR][Cha]SHKG[Oic][Nle][αMeP][Phe(4-Cl)]-OH (SMILES CCCCCCCCCCCCC(=O)NCCC(C(=O)O)C(=O)NCCOCCOCC(=O)NCCOCCOCC(=O)N[C@@H](CCC(N)=O)C(=O)N[C@@H](CCCNC(=N)N)C(=O)N1CCC[C@H]1C(=O)N(C)[C@@H](CCCNC(=N)N)C(=O)N[C@@H](CC1CCCCC1)C(=O)N[C@@H](CO)C(=O)N[C@@H](Cc1c[nH]cn1)C(=O)N[C@@H](CCCCN)C(=O)NCC(=O)N1[C@H](C(=O)N[C@@H](CCCC)C(=O)N2CCC[C@@]2(C)C(=O)N[C@@H](Cc2ccc(Cl)cc2)C(=O)O)C[C@@H]2CCCC[C@@H]21) [Apelin polypeptide SEQ ID NO: 412] | 0.436 | 0.614 |  |
| Tridecanoyl-[AC4Abu″][AEEA][AEEA]QR[β3hP][NMeR][Cha]SHKG[Oic][Nle]P[Phe(4-Cl)]-OH (reading uncertain) [Apelin polypeptide SEQ ID NO: 441] |  | 1.9 |  |
| XXXQRPRLSHKGPXPF ({Subericacid}[AC4Abu][Aeea][Aeea]QRP[NMeArg]LSHKGP[Nle]P[4-Cl-F]{COOH}) [SEQ ID NO: 508] |  |  | 0.467 |
| {HOOC(CH2)8CO}-[γGlu][AEEA][AEEA][hArg][dR]Q[hArg]P[dR][NMeL]SHKG[Oic][Phe(4-I)]P[dBip]-OH (SMILES CC(C)C[C@@H](C(=O)N[C@@H](CO)C(=O)N[C@@H](Cc1c[nH]cn1)C(=O)N[C@@H](CCCCN)C(=O)NCC(=O)N1[C@H](C(=O)N[C@@H](Cc2ccc(I)cc2)C(=O)N2CCC[C@H]2C(=O)N[C@H](Cc2ccc(-c3ccccc3)cc2)C(=O)O)C[C@@H]2CCCC[C@@H]21)N(C)C(=O)[C@@H](CCCNC(=N)N)NC(=O)[C@@H]1CCCN1C(=O)[C@H](CCCCNC(=N)N)NC(=O)[C@H](CCC(N)=O)NC(=O)[C@@H](CCCNC(=N)N)NC(=O)[C@H](CCCCNC(=N)N)NC(=O)COCCOCCNC(=O)COCCOCCNC(=O)CC[C@H](NC(=O)CCCCCCCCC(=O)O)C(=O)O) [SEQ ID NO: 289] |  |  | 1.3 |
| Tridecanoyl-[γGlu][AEEA][AEEA][dQ]RP[NMeR][Cha]SHKG[Oic][Nle][Aib][Phe(4-Cl)]-OH [Apelin polypeptide SEQ ID NO: 540] |  | 0.41 |  |
| XXXQRPRLSHKGPXPF ({St}[AC4Abu][Aeea][Aeea]QRP[NMeArg]LSHKGP[Nle]P[4-Cl-F]{COOH}) [SEQ ID NO: 594] |  |  | 0.528 |
| Tridecanoyl-[AC4Abu″][AEEA][AEEA][hArg][hArg]Q[hArg]P[NMeR][Cha]SHKG[Oic][Nle]P[Phe(4-Cl)]-OH (reading uncertain) [SEQ ID NO: 309] |  |  | 0.215 |
| Tridecanoyl-[AC4Abu][AEEA][AEEA]QRP[NMeR][Cha]SHKG[Oic][Nle][Phe(4-Cl)]-OH (SMILES CCCCCCCCCCCCC(=O)NCCC(C(=O)O)C(=O)NCCOCCOCC(=O)NCCOCCOCC(=O)N[C@@H](CCC(N)=O)C(=O)N[C@@H](CCCNC(=N)N)C(=O)N1CCC[C@H]1C(=O)N(C)[C@@H](CCCNC(=N)N)C(=O)N[C@@H](CC1CCCCC1)C(=O)N[C@@H](CO)C(=O)N[C@@H](Cc1c[nH]cn1)C(=O)N[C@@H](CCCCN)C(=O)NCC(=O)N1[C@H](C(=O)N[C@@H](CCCC)C(=O)N[C@@H](Cc2ccc(Cl)cc2)C(=O)O)C[C@@H]2CCCC[C@@H]21) [Apelin polypeptide SEQ ID NO: 409] | 0.511 | 1 |  |
| XXXQRPRLSHKGPXPF ({TDA}[AC4Abu][Aeea][Aeea]QR[aMePro][hArg][aMeLeu]SHKGP[Nle]P[4-Cl-F]{COOH}) [Apelin polypeptide SEQ ID NO: 482] |  | 0.0862 |  |
| Tridecanoyl-[AC4Abu″][AEEA][AEEA]QRP[NMeR][Cha]SHKG[Oic][Nle][Aib][Phe(4-Cl)]-OH (reading uncertain) [Apelin polypeptide SEQ ID NO: 382] |  | 0.469 |  |
| Tridecanoyl-[AC4Abu][AEEA][AEEA]QRP[NMeR][Cha]SHKG[Oic][Nle][dPhe(4-Cl)]-OH (SMILES CCCCCCCCCCCCC(=O)NCCC(C(=O)O)C(=O)NCCOCCOCC(=O)NCCOCCOCC(=O)N[C@@H](CCC(N)=O)C(=O)N[C@@H](CCCNC(=N)N)C(=O)N1CCC[C@H]1C(=O)N(C)[C@@H](CCCNC(=N)N)C(=O)N[C@@H](CC1CCCCC1)C(=O)N[C@@H](CO)C(=O)N[C@@H](Cc1c[nH]cn1)C(=O)N[C@@H](CCCCN)C(=O)NCC(=O)N1[C@H](C(=O)N[C@@H](CCCC)C(=O)N[C@H](Cc2ccc(Cl)cc2)C(=O)O)C[C@@H]2CCCC[C@@H]21) [Apelin polypeptide SEQ ID NO: 410] | 2.68 | 2.47 |  |
